We go through 2 molecules from patent WO2011014457A1 (dated 2011).

One experiment deals with T1, human MerFc (human, UniProt Q12866 21-499, limits assumed).
T1 sequence (looked up): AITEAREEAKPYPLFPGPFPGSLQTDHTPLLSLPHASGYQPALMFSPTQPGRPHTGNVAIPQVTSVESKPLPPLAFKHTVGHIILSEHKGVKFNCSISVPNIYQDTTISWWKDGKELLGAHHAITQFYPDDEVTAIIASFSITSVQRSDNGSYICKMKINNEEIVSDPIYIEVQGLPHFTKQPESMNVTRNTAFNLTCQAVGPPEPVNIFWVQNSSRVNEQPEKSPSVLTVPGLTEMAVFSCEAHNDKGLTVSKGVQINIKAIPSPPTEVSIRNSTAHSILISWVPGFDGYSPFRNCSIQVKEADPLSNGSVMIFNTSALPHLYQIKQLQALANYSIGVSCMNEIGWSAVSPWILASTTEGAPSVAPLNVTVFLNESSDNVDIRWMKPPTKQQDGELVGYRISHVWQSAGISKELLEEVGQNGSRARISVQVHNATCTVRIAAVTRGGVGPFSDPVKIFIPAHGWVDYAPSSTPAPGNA
Kind of experiment: ELISA, Fc fusion captured on anti-human IgG Fc. (In general: In an ELISA, binding on a coated surface is turned into a signal by an enzyme label.)

In the next experiment the target is T2, human Tyro-3Fc (human, UniProt Q06418 41-428, limits assumed).
T2 sequence (looked up): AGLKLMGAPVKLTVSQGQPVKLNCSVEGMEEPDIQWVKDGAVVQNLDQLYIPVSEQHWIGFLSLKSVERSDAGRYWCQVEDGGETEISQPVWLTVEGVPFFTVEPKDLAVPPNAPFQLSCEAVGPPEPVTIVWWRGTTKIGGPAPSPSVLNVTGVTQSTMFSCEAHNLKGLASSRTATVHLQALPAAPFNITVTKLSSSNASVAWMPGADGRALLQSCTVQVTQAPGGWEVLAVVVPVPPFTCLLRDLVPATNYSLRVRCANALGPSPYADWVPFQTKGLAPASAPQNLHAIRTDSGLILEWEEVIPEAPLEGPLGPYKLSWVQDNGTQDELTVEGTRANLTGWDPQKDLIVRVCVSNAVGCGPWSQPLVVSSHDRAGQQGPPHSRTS
The experiment can be described thus: ELISA, Fc fusion captured on anti-human IgG Fc.

The next experiment has as its target T3, human AxI ECD-His (human, UniProt P30530 26-451).
T3 construct: extracellular domain; also called human AxI ECD-His protein; Hu AxI
The experiment can be described thus: SPR (BIAcore-3000), IgG captured by anti-human IgG, human AxI ECD-His injected. A general note: SPR reads the build-up and loss of mass on a sensor chip optically.

Experiment [1] has as its target T4, murine AxI ECD-Fc fusion protein (murine, UniProt Q00993 19-445).
T4 construct: extracellular domain; also called murine AxIFc; mouse AxI.Fc
The experiment can be described thus: SPR (BIAcore-3000), murine AxI ECD-Fc captured by anti-human IgG, anti-Axl Fab fragment injected (per methods).

T4 sequence (Q00993 19-445): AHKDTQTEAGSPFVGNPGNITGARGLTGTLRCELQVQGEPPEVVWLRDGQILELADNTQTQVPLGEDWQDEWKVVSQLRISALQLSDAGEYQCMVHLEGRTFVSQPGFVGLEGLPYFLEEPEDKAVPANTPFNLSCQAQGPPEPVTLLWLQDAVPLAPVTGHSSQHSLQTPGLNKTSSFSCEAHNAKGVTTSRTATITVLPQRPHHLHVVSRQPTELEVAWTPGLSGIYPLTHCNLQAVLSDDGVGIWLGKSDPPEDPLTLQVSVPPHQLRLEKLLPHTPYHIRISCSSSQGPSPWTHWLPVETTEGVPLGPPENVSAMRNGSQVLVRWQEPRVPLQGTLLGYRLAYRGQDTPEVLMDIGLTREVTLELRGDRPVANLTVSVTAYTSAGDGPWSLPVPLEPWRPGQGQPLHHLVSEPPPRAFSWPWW

B1: YW327.6S2 (antibody, V domains shown)
VH: EVQLVESGGGLVQPGGSLRLSCAASGFSLSGSWIHWVRQAPGKGLEWVGWINPYRGYAYYADSVKGRFTISADTSKNTAYLQMNSLRAEDTAVYYCAREYSGWGGSSVGYAMDYWGQGTLV
VL: DIQMTQSPSSLSASVGDRVTITCRASQDVSTAVAWYQQKPGKAPKLLIYSASFLYSGVPSRFSGSGSGTDFTLTISSLQPEDFATYYCQQSYTTPPTFGQGTKVEIKR
notes: also called AxI mAb YW327.6S2
As for B1, the binding result with human MerFc and in the experiment with human Tyro-3Fc was “no binding” each time. Further, the Kd (as a rule, a measure of binding affinity in units of concentration) with human AxI ECD-His was roughly 1 nM.

B2: YW327.6S2 Fab fragment (Fab, V domains shown)
VH: B1 VH
VL: B1 VL
notes: also called anti-Axl Fab fragment
In experiment [1], B2 returned a Kd of 0.545 nM.
